From US20250042997A1 (PHYLAXIS BIOSCIENCE, published 2025)

Legend:
[1] = target: T1, human Siglec-8 (full-length, on transfected CHO or 293 cells, or native on human eosinophils) (human, UniProt Q9NYZ4 17-499); test: flow cytometry on human eosinophils (CD16- CCR3+) from whole blood; anti-human AF647 secondary; MFI
Text: To determine if increasing the valency of Siglec-8 antibodies could enhance agonist activity, the parental llama B12, D1 and E2 VHH sequences were used to generate tetravalent (Tet-B12 (cx8467; SEQ ID NO:50 linked to an Fe), Tet-D1 (cx8469; SEQ ID NO:56 linked to an Fe), and Tet-E2 (cx8463; SEQ ID NO:62 linked to an Fc)) and hexavalent (Hex-B12 (cx8466; SEQ ID NO:51 linked to an Fe), Hex-D1 (cx8523; SEQ ID NO:57 linked to an Fe), and Hex-E2 (cx8522; SEQ ID NO:165 linked to an Fc)), Siglec8-VHH-Fc antibodies linked to a reduced effector function xELL human Fc region via linker 2. The bivalent (Bi-B12 (cx8982), Bi-D1 (cx8983) and Bi-E2 (cx8984)), tetravalent, and hexavalent Siglec8-VHH-Fc antibodies were assessed by flow cytometry for binding to eosinophils (CD16⁻ CCR3⁺). Cells were isolated from whole blood by centrifugation, washed twice with 2% FBS PBS, and resuspended in 1×RBC lysis buffer for 10 minutes at room temperature (RT), washed once in 2% FBS PBS and treated with a second RBC lysis step and washed twice with 2% FBS. Cells were seeded at 200 k/well and resuspended in Human FC block for 10 minutes at RT. Cells were spun down and then resuspended in titrated test articles starting at 200 nM 1:4 and incubated for 30 minutes at 4° C. before being washed twice and resuspended in secondary mixture (2*; anti-CCR3 FITC, anti-human AF647, PI, anti-CD16 BV605) and incubated for 30 minutes at 4° C., washed twice, and bound antibodies were detected via flow cytometry (Novocyte).
As shown in FIG. 2A-2C, bivalent, tetravalent, and hexavalent Siglec8-VHH-Fc antibodies B12 (FIG. 2A), D1 (FIG. 2B) and E2 (FIG. 2C) bound to eosinophils. The calculated affinity was similar between the bivalent, tetravalent, and hexavalent hzSiglec8-VHH-Fc antibodies. The observed Bmax was reduced with increasing valency as anticipated, due the fact that the Fc portion of the antibody was detected in this assay and the ratio of Fc regions to anti-Siglec-8 binding domains is inverse to valency. No binding was observed on other granulocyte populations (CD16⁺ CCR3⁻).

[2] = target: T1, human Siglec-8 (full-length, on …); test: flow cytometry on 293 cells transiently transfected with full-length human Siglec-8; A647 anti-human Fc-gamma secondary; median fluorescence, nonlinear fit; table under the graph
Experimental: (§1) The binding of the lmG2 and humanized versions (further including Siglec8 hzG2v14), formatted as monomeric VHH-hIgG1 fusions proteins using a non-dimerizing human IgG1 Fe variant region lacking a hinge Fe NNT, was assessed by flow cytometry using 293 cells that had been transiently transfected with full-length human Siglec-8 and detected with an anti-human AF647 secondary antibody. Binding specificity was assessed using untransfected 293 cells as a control. For the binding assays, Siglec-8 293 cells or untransformed 293 cells were seeded in a 96 well U-bottom plate with 50 k cells/well in FACS buffer and incubated at 4° C. with a titration of anti-Siglec8-VHH-NNT for 30 minutes. After washing, the plates were incubated with an A647-conjugated anti-human Fcγ specific secondary antibody diluted 1:10,000 in FACS buffer for 20 minutes at 4° C. The plates were washed, and binding was determined by flow cytometry quantitating anti-human A647 median fluorescent intensity. The maximum specific binding (Bmax) and affinity (Kd) for was determined from the flow cytometry binding data using a nonlinear fit model.

[3] = target: T1, human Siglec-8 (full-length, on …); test: flow cytometry on 293 cells transiently transfected with full-length human Siglec-8; A647 anti-human Fc-gamma secondary; median fluorescence, nonlinear fit; table under the graph (Kd column without unit, concentration axis nM Ab)
Experimental: as §1

T1 sequence (Q9NYZ4 17-499): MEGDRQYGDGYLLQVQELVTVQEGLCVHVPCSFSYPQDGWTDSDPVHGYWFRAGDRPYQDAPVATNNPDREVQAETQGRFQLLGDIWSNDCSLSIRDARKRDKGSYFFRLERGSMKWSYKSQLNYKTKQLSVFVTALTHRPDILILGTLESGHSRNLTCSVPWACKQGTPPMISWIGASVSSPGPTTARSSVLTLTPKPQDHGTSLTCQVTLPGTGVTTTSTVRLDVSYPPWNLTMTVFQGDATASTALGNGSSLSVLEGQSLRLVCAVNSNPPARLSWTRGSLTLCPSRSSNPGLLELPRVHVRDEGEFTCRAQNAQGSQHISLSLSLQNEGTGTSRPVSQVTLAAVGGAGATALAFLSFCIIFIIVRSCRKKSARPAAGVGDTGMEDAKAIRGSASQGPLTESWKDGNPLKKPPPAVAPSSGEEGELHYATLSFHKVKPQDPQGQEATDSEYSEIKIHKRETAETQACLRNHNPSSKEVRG

B1: Tet-B12, tetravalent Siglec8-VHH-Fc (xELL) (Fc fusion)
chain: QVQVVESGGGLVQPGGSLRLSCAASGSTSLLNAMAWYRQAPGKERELVAAISSGGGTYYADSVKGRFTISTNNAKNTLYLQMNSLKPEDTAMYYCAPGPNYSDYEEINWGQGTQVTVKPGGSGGSQVQVVESGGGLVQPGGSLRLSCAASGSTSLLNAMAWYRQAPGKERELVAAISSGGGTYYADSVKGRFTISTNNAKNTLYLQMNSLKPEDTAMYYCAPGPNYSDYEEINWGQGTQVTVKPGGGGDKTHTCPPCPAPGGPSVFLFPPKPKDTLMISRTPEVTCVVVDVSHEDPEVKFNWYVDGVEVHNAKTKPREEQYNSTYRVVSVLTVLHQDWLNGKEYKCKVSNKALPAPIEKTISKAKGQPREPQVYTLPPSRDELTKNQVSLTCLVKGFYPSDIAVEWESNGQPENNYKTTPPVLDSDGSFFLYSKLTVDKSRWQQGNVFSCSVMHEALHNHYTQKSLSLSPGK
notes: Homodimer through the Fc; also called cx8467
Q: Does B1 bind [1]?
A: Result: binds

B2: Hex-B12, hexavalent Siglec8-VHH-Fc (xELL) (Fc fusion)
chain: QVQVVESGGGLVQPGGSLRLSCAASGSTSLLNAMAWYRQAPGKERELVAAISSGGGTYYADSVKGRFTISTNNAKNTLYLQMNSLKPEDTAMYYCAPGPNYSDYEEINWGQGTQVTVKPGGSGGSQVQVVESGGGLVQPGGSLRLSCAASGSTSLLNAMAWYRQAPGKERELVAAISSGGGTYYADSVKGRFTISTNNAKNTLYLQMNSLKPEDTAMYYCAPGPNYSDYEEINWGQGTQVTVKPGGSGGSQVQVVESGGGLVQPGGSLRLSCAASGSTSLLNAMAWYRQAPGKERELVAAISSGGGTYYADSVKGRFTISTNNAKNTLYLQMNSLKPEDTAMYYCAPGPNYSDYEEINWGQGTQVTVKPGGGGDKTHTCPPCPAPGGPSVFLFPPKPKDTLMISRTPEVTCVVVDVSHEDPEVKFNWYVDGVEVHNAKTKPREEQYNSTYRVVSVLTVLHQDWLNGKEYKCKVSNKALPAPIEKTISKAKGQPREPQVYTLPPSRDELTKNQVSLTCLVKGFYPSDIAVEWESNGQPENNYKTTPPVLDSDGSFFLYSKLTVDKSRWQQGNVFSCSVMHEALHNHYTQKSLSLSPGK
notes: Homodimer through the Fc; also called cx8466
Q: Does B2 bind [1]?
A: Result: binds

B3: Tet-D1, tetravalent Siglec8-VHH-Fc (xELL) (Fc fusion)
chain: QVQLVESGGGLVQPGGSLRLSCAASGSIASIHGMGWYRQAPGKERELVAAIAGEGSTYYADSVKGRFTISRDFAKNTLYLQMNNLKAEDTAMYYCANNDERDDYWGQGTQVTVKPGGSGGSQVQLVESGGGLVQPGGSLRLSCAASGSIASIHGMGWYRQAPGKERELVAAIAGEGSTYYADSVKGRFTISRDFAKNTLYLQMNNLKAEDTAMYYCANNDERDDYWGQGTQVTVKPGGGGDKTHTCPPCPAPGGPSVFLFPPKPKDTLMISRTPEVTCVVVDVSHEDPEVKFNWYVDGVEVHNAKTKPREEQYNSTYRVVSVLTVLHQDWLNGKEYKCKVSNKALPAPIEKTISKAKGQPREPQVYTLPPSRDELTKNQVSLTCLVKGFYPSDIAVEWESNGQPENNYKTTPPVLDSDGSFFLYSKLTVDKSRWQQGNVFSCSVMHEALHNHYTQKSLSLSPGK
notes: Homodimer through the Fc; also called cx8469
Q: Does B3 bind [1]?
A: Result: binds

B4: Hex-D1, hexavalent Siglec8-VHH-Fc (xELL) (Fc fusion)
chain: QVQLVESGGGLVQPGGSLRLSCAASGSIASIHGMGWYRQAPGKERELVAAIAGEGSTYYADSVKGRFTISRDFAKNTLYLQMNNLKAEDTAMYYCANNDERDDYWGQGTQVTVKPGGSGGSQVQLVESGGGLVQPGGSLRLSCAASGSIASIHGMGWYRQAPGKERELVAAIAGEGSTYYADSVKGRFTISRDFAKNTLYLQMNNLKAEDTAMYYCANNDERDDYWGQGTQVTVKPGGSGGSQVQLVESGGGLVQPGGSLRLSCAASGSIASIHGMGWYRQAPGKERELVAAIAGEGSTYYADSVKGRFTISRDFAKNTLYLQMNNLKAEDTAMYYCANNDERDDYWGQGTQVTVKPGGGGDKTHTCPPCPAPGGPSVFLFPPKPKDTLMISRTPEVTCVVVDVSHEDPEVKFNWYVDGVEVHNAKTKPREEQYNSTYRVVSVLTVLHQDWLNGKEYKCKVSNKALPAPIEKTISKAKGQPREPQVYTLPPSRDELTKNQVSLTCLVKGFYPSDIAVEWESNGQPENNYKTTPPVLDSDGSFFLYSKLTVDKSRWQQGNVFSCSVMHEALHNHYTQKSLSLSPGK
notes: Homodimer through the Fc; also called cx8523
Q: Does B4 bind [1]?
A: Result: binds

B5: Tet-E2, tetravalent Siglec8-VHH-Fc (xELL) (Fc fusion)
chain: QVQLVESGGGLVQPGGSLRLSCATSGIIFTSNVINWYRQAPGKQREFVAFITSITSGQSTMYADAVKGRFTVSRDNDKNIGYLQMTSLQPEDTARYVCNVGAYWGQGTQVTVKPGGSGGSQVQLVESGGGLVQPGGSLRLSCATSGIIFTSNVINWYRQAPGKQREFVAFITSITSGQSTMYADAVKGRFTVSRDNDKNIGYLQMTSLQPEDTARYVCNVGAYWGQGTQVTVKPGGGGDKTHTCPPCPAPGGPSVFLFPPKPKDTLMISRTPEVTCVVVDVSHEDPEVKFNWYVDGVEVHNAKTKPREEQYNSTYRVVSVLTVLHQDWLNGKEYKCKVSNKALPAPIEKTISKAKGQPREPQVYTLPPSRDELTKNQVSLTCLVKGFYPSDIAVEWESNGQPENNYKTTPPVLDSDGSFFLYSKLTVDKSRWQQGNVFSCSVMHEALHNHYTQKSLSLSPGK
notes: Homodimer through the Fc; also called cx8463
Q: Does B5 bind [1]?
A: Result: binds

B6: Siglec8 hzG2v2.1, monomeric VHH-hIgG1 fusion (Fc NNT) (Fc fusion)
chain: EVQLLESGGGEVQPGGSLRLSCAASGSISIFSMYVVAWYRQAPGKEREWVAFIQRGGTANYAESAKGRFTISRDNAKNTVYLQMSSLRAEDTAVYYCNYINSDNEIGGPWGQGTLVTVKP
notes: Monomeric format; not shown: non-dimerizing human IgG1 Fc variant lacking a hinge (Fc NNT)
Q: Which Bmax [2] does the source give for B6 here?
A: Its Bmax is 3.81e+06 Median (anti-human A647).

Q: What about the Kd [3] of the same binder?
A: The Kd was 1.57 nM.

B7: Siglec8 hzG2v6.1, monomeric VHH-hIgG1 fusion (Fc NNT) (Fc fusion)
chain: EVQLLESGGGEVQPGGSLRLSCAASGSISIFSMYVVAWYRQAPGKQREWVSFIQRGGTANYAESAKGRFTISRDNAKNTVYLQMSSLRAEDTAVYYCNYINSDNEIGGPWGQGTLVTVKP
notes: as for B6
Q: For B7, which Bmax [2] is on record?
A: Its Bmax is 3.63e+06 Median (anti-human A647).

Q: And the Kd [3]?
A: Its Kd is 1.7 nM.

B8: Siglec8 hzG2v11, monomeric VHH-hIgG1 fusion (Fc NNT) (Fc fusion)
chain: EVQLLESGGGEVQPGGSLRLSCAASGSISIFSMYVVAWYRQAPGKEREWVAFIQRGGTANYAESAKGRFTISRDNAKNTVYLQMSSLRAEDTAVYYCNYIQSDNEIGGPWGQGTLVTVKP
notes: as for B6
Q: Which results are given for B8?
A: Bmax [2]: 1.47e+06 Median (anti-human A647); Kd [3]: 0.14 nM

B9: Siglec8 hzG2v12, monomeric VHH-hIgG1 fusion (Fc NNT) (Fc fusion)
chain: EVQLLESGGGEVQPGGSLRLSCAASGSISIFSMYVVAWYRQAPGKEREWVAFIQRGGTANYAESAKGRFTISRDNAKNTVYLQMSSLRAEDTAVYYCNYISSDNEIGGPWGQGTLVTVKP
notes: as for B6
Q: Which Bmax [2] does the source give for B9 here?
A: Its Bmax is 1.25e+06 Median (anti-human A647).

Q: What about the Kd [3] of the same binder?
A: The Kd was 0.327 nM.

B10: Siglec8 hzG2v13, monomeric VHH-hIgG1 fusion (Fc NNT) (Fc fusion)
chain: EVQLLESGGGEVQPGGSLRLSCAASGSISIFSMYVVAWYRQAPGKEREWVAFIQRGGTANYAESAKGRFTISRDNAKNTVYLQMSSLRAEDTAVYYCNYITSDNEIGGPWGQGTLVTVKP
notes: as for B6
Q: For B10, which Bmax [2] is on record?
A: The Bmax was 1.06e+06 Median (anti-human A647).

Q: And the Kd [3]?
A: Its Kd is 0.138 nM.

B11: Siglec8 hzG2v14, monomeric VHH-hIgG1 fusion (Fc NNT) (Fc fusion)
chain: EVQLLESGGGEVQPGGSLRLSCAASGSISIFSMYVVAWYRQAPGKEREWVAFIQRGGTANYAESAKGRFTISRDNAKNTVYLQMSSLRAEDTAVYYCNYINTDNEIGGPWGQGTLVTVKP
notes: as for B6
Q: B11 was tested. Which Bmax [2] did it give?
A: The Bmax was 1.35e+06 Median (anti-human A647).

Q: And the Kd [3]?
A: The Kd was 0.164 nM.

B12: Siglec8 hzG2v15, monomeric VHH-hIgG1 fusion (Fc NNT) (Fc fusion)
chain: EVQLLESGGGEVQPGGSLRLSCAASGSISIFSYYVVAWYRQAPGKEREWVAFIQRGGTANYAESAKGRFTISRDNAKNTVYLQMSSLRAEDTAVYYCNYINSDNEIGGPWGQGTLVTVKP
notes: as for B6
Q: Which Bmax [2] does the source give for B12 here?
A: The Bmax was 1.4e+06 Median (anti-human A647).

Q: And the Kd [3]?
A: Its Kd is 0.175 nM.

B13: Siglec8 hzG2v16, monomeric VHH-hIgG1 fusion (Fc NNT) (Fc fusion)
chain: EVQLLESGGGEVQPGGSLRLSCAASGSISIFSLYVVAWYRQAPGKEREWVAFIQRGGTANYAESAKGRFTISRDNAKNTVYLQMSSLRAEDTAVYYCNYINSDNEIGGPWGQGTLVTVKP
notes: as for B6
Q: B13 was tested. Which Bmax [2] did it give?
A: Its Bmax is 1.49e+06 Median (anti-human A647).

Q: What about the Kd [3] of the same binder?
A: Its Kd is 0.1 nM.

B14: Siglec8 hzG2v24, monomeric VHH-hIgG1 fusion (Fc NNT) (Fc fusion)
chain: QVTLKESGGGLVRTGGSLRLSCAASGSISIFSMYVVAWYRQAPGKQREWVAFIQRGGTANYAESAKGRFTISRDNAKNTVYLQMSSLRAEDTAVYYCNYINSDNEIGGPWGQGTLVTVKP
notes: as for B6
Q: What does the source list for B14?
A: Bmax [2]: 1.27e+06 Median (anti-human A647); Kd [3]: 0.181 nM
